Measurements taken from patent publication EP2170953B1 (AC Immune S.A., dated 2015).

How the values were obtained:
[1] = target: Aβ1-42 (low-molecular weight, HFIP-treated, Th-T aggregation assay); assay: cell-based or functional assay
[2] = target: pre-aggregated Aβ1-42 (Th-T disaggregation assay); assay: cell-based or functional assay
[3] = target: Aβ1-42 library peptide 9; assay: peptide library ELISA, Ab 10 µg/ml
[4] = target: Aβ1-42 library peptide 13; assay: peptide library ELISA, Ab 10 µg/ml
[5] = target: Aβ1-42 library peptide 31; assay: peptide library ELISA, Ab 10 µg/ml
[6] = target: Aβ1-42 library peptide 25; assay: peptide library ELISA, Ab 10 µg/ml
[7] = target: Aβ1-42 library peptide 3; assay: peptide library ELISA, Ab 10 µg/ml
[8] = target: Aβ1-42 library peptide 30; assay: peptide library ELISA, Ab 10 µg/ml
[9] = target: Aβ1-42 library peptide 33; assay: peptide library ELISA, Ab 10 µg/ml
[10] = target: Aβ1-42 library peptide 6; assay: peptide library ELISA, Ab 10 µg/ml
[11] = target: Aβ1-42 library peptide 10; assay: peptide library ELISA, Ab 10 µg/ml
[12] = target: Aβ1-42 library peptide 1; assay: peptide library ELISA, Ab 10 µg/ml
[13] = target: Aβ1-42 library peptide 29; assay: peptide library ELISA, Ab 10 µg/ml
[14] = target: Aβ1-42 library peptide 15; assay: peptide library ELISA, Ab 10 µg/ml
[15] = target: Aβ1-42 library peptide 26; assay: peptide library ELISA, Ab 10 µg/ml
[16] = target: Aβ1-42 library peptide 18; assay: peptide library ELISA, Ab 10 µg/ml
[17] = target: Aβ1-42 library peptide 12; assay: peptide library ELISA, Ab 10 µg/ml
[18] = target: Aβ1-42 library peptide 28; assay: peptide library ELISA, Ab 10 µg/ml
[19] = target: Aβ1-42 library peptide 2; assay: peptide library ELISA, Ab 10 µg/ml
[20] = target: Aβ1-42 library peptide 24; assay: peptide library ELISA, Ab 10 µg/ml
[21] = target: Aβ1-42 library peptide 23; assay: peptide library ELISA, Ab 10 µg/ml
[22] = target: Aβ1-42 library peptide 19; assay: peptide library ELISA, Ab 10 µg/ml
[23] = target: Aβ1-42 library peptide 8; assay: peptide library ELISA, Ab 10 µg/ml
[24] = target: Aβ1-42 library peptide 22; assay: peptide library ELISA, Ab 10 µg/ml
[25] = target: Aβ1-42 library peptide 16; assay: peptide library ELISA, Ab 10 µg/ml
[26] = target: Aβ1-42 library peptide 4; assay: peptide library ELISA, Ab 10 µg/ml
[27] = target: Aβ1-42 library peptide 5; assay: peptide library ELISA, Ab 10 µg/ml
[28] = target: Aβ1-42 library peptide 32; assay: peptide library ELISA, Ab 10 µg/ml
[29] = target: Aβ1-42 library peptide 11; assay: peptide library ELISA, Ab 10 µg/ml
[30] = target: Aβ1-42 library peptide 17; assay: peptide library ELISA, Ab 10 µg/ml
[31] = target: Aβ1-42 library peptide 27; assay: peptide library ELISA, Ab 10 µg/ml
[32] = target: Aβ1-42 library peptide 7; assay: peptide library ELISA, Ab 10 µg/ml
[33] = target: Aβ1-42 library peptide 21; assay: peptide library ELISA, Ab 10 µg/ml
[34] = target: Aβ1-42 library peptide 14; assay: peptide library ELISA, Ab 10 µg/ml
[35] = target: Aβ1-42 library peptide 20; assay: peptide library ELISA, Ab 10 µg/ml

pre-aggregated Aβ1-42 (Th-T disaggregation assay), sequence (peptide, as listed by the source, form in doubt): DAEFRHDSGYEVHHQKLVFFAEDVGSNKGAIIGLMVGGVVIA
Aβ1-42 (low-molecular weight, HFIP-treated, Th-T aggregation assay), sequence (peptide, as listed by the source, form in doubt): as above

B1: ACI-11-Ab-9 (antibody, V domains shown)
VH: QVQLQQSDAELVKPGASVKISCKVSGYTFTDHTIHWMKQRPEQGLEWIGYIYPRDGSTKYNEKFKGKATLTADKSSSTAYMQLNSLTSEDSAVYFCARDYGYAFDYWGQGTTLTVSS
VL: QAVVTQESALTTSPGGTVILTCRSSTGAVTTSNYANWVQEKPDHLFTGLIGGTSNRAPGVPVRFSGSLIGDKAALTITGAQTEDDAMYFCALWYSTHYVFGGGTKVTVL
notes: also called FG1F9E4
[1]
  inhibition of Aβ1-42 aggregation (Th-T fluorescence), molar ratio 1:10: 69%
  inhibition of Aβ1-42 aggregation (Th-T fluorescence), molar ratio 1:100: 34%
[2]
  disaggregation of pre-aggregated Aβ1-42 (Th-T fluorescence), molar ratio 1:10: 52%
  disaggregation of pre-aggregated Aβ1-42 (Th-T fluorescence), molar ratio 1:100: 22%
[3]
  O.D.: 0.11 O.D.
[4]
  O.D.: 0.17 O.D.
[5]
  O.D.: 0.12 O.D.
[6]
  O.D.: 0.11 O.D.
[7]
  O.D.: 0.12 O.D.
[8]
  O.D.: 0.11 O.D.
[9]
  O.D.: 0.11 O.D.
[10]
  O.D.: 0.11 O.D.
[11]
  O.D.: 0.13 O.D.
[12]
  O.D.: 0.1 O.D.
[13]
  O.D.: 0.2 O.D.
[14]
  O.D.: 0.14 O.D.
[15]
  O.D.: 0.12 O.D.
[16]
  O.D.: 0.11 O.D.
[17]
  O.D.: 0.24 O.D.
[18]
  O.D.: 0.12 O.D.
[19]
  O.D.: 0.1 O.D.
[20]
  O.D.: 0.1 O.D.
[21]
  O.D.: 0.11 O.D.
[22]
  O.D.: 0.1 O.D.
[23]
  O.D.: 0.11 O.D.
[24]
  O.D.: 0.1 O.D.
[25]
  O.D.: 0.14 O.D.
[26]
  O.D.: 0.11 O.D.
[27]
  O.D.: 0.11 O.D.
[28]
  O.D.: 0.12 O.D.
[29]
  O.D.: 0.11 O.D.
[30]
  O.D.: 0.13 O.D.
[31]
  O.D.: 0.13 O.D.
[32]
  O.D.: 0.11 O.D.
[33]
  O.D.: 0.1 O.D.
[34]
  O.D.: 0.16 O.D.
[35]
  O.D.: 0.1 O.D.

B2: ACI-12-Ab-11 (antibody, V domains shown)
VH: B1 VH
VL: B1 VL
notes: also called FK2A6A6
[1]
  inhibition of Aβ1-42 aggregation (Th-T fluorescence), molar ratio 1:10: 66%
  inhibition of Aβ1-42 aggregation (Th-T fluorescence), molar ratio 1:100: 30%
[2]
  disaggregation of pre-aggregated Aβ1-42 (Th-T fluorescence), molar ratio 1:10: 54%
  disaggregation of pre-aggregated Aβ1-42 (Th-T fluorescence), molar ratio 1:100: 18%
[3]
  O.D.: 0.1 O.D.
[4]
  O.D.: 0.15 O.D.
[5]
  O.D.: 0.11 O.D.
[6]
  O.D.: 0.11 O.D.
[7]
  O.D.: 0.11 O.D.
[8]
  O.D.: 0.11 O.D.
[9]
  O.D.: 0.11 O.D.
[10]
  O.D.: 0.1 O.D.
[11]
  O.D.: 0.1 O.D.
[12]
  O.D.: 0.1 O.D.
[13]
  O.D.: 0.11 O.D.
[14]
  O.D.: 0.1 O.D.
[15]
  O.D.: 0.12 O.D.
[16]
  O.D.: 0.1 O.D.
[17]
  O.D.: 0.21 O.D.
[18]
  O.D.: 0.11 O.D.
[19]
  O.D.: 0.1 O.D.
[20]
  O.D.: 0.1 O.D.
[21]
  O.D.: 0.1 O.D.
[22]
  O.D.: 0.1 O.D.
[23]
  O.D.: 0.1 O.D.
[24]
  O.D.: 0.1 O.D.
[25]
  O.D.: 0.14 O.D.
[26]
  O.D.: 0.1 O.D.
[27]
  O.D.: 0.1 O.D.
[28]
  O.D.: 0.11 O.D.
[29]
  O.D.: 0.11 O.D.
[30]
  O.D.: 0.12 O.D.
[31]
  O.D.: 0.12 O.D.
[32]
  O.D.: 0.1 O.D.
[33]
  O.D.: 0.09 O.D.
[34]
  O.D.: 0.12 O.D.
[35]
  O.D.: 0.1 O.D.
